Reference: patent US6518013

Molecular target: viral gp41 (HIV-1 transmembrane envelope protein) of HIV-1IIIB (HIV-1IIIB) (UniProt P04578)
Assay: cell-based or functional assay

Row | Substance | Cell fusion (IC90) [nM] | HIV infectivity (IC90) [nM]
1 | DP107 (synthetic peptide, residues 558 to 595 of HIV-1LAI gp41) | 1000 | 1000
2 | DP178 (synthetic peptide, amino acids 638 to 673 of HIV-1LAI gp41) | 1 | 80
3 | M41 (maltose binding protein fusion of the gp41 ectodomain, residues 540-686) (from UniProt P0AEX9 27-392; P03377 540-686) | > 50000 | > 16000
4 | M41-P (M41 with an Ile to Pro mutation at position 578) (from UniProt P0AEX9 27-392; P03377 540-686) | 83 | 66
5 | M41-PΔ178 (M41-P from which the DP-178 region has been deleted; gp41 residues 540-642 with Ile578Pro) (from UniProt P03377 540-642) | > 50000 | > 8000
